Laboratory results as given in the RNAGym collection of RNA variant scans (doi:10.1073/pnas.2313332121).

B1: TPR t1 (parent)
chain: GACCAAUCUGCCCUCAGAGCUCGAGAACAUCUUCGGAUGCAGAGGAGGCAGGCUUCGGUGGCGCGAUAGCGCCAACGUCCUCAACCUCCAAUGCAUCCCACCACAUGAUGAUGCCUGAAGAGCCUUGGUUUUUUG

Variants of: B1
Experiment: polymerase ribozyme fitness, log enrichment relative to wild type (log ratio); higher = more active; in vitro selection for triplet polymerase activity
Method in brief: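 After PCR construction and transcription, each subunit's mutant library from a heterodimeric triplet polymerase ribozyme was annealed with a biotinylated primer, the partner subunit and triplets. Incubation was frozen, at −7 °C, and extended constructs were gel-excised, bound to streptavidin beads and amplified by RT-PCR, in one selection round done in triplicate. Fitness is the logarithm of a genotype's enrichment divided by that of the wild type, from inverse-variance-weighted replicate averages of Illumina-sequenced inputs and outputs. The base of the logarithm is 2, and genotypes needed ≥10 input reads and ≥1 read per output.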

Variant	polymerase ribozyme fitness (log ratio)
GACCAAUCUGCCCUCAGAGCUCGAGAACAUCUUCGGAUGCAGAGGAGGCAGGCUUCAGUGGCGCGAUAGCGCUAACGACCUCAACCUCCAAUGCAUCCUACCACAUGAUGAUGCCUGAAGAGCCUUGCUUUUUUG [G57A C73U U78A C99U G128C]	-6.66
GACCAAUCUGCCCUCAGAGCUCGAGAACAUCUUCGGAUGCAGAGGAGGCAGGCUUCAGUGGCGCGAUAGCGCCAACGUCCUUAACCUCCAAUGCAUCCCACCACGUGAUGAUGCCUGAAUAGCCUUGGUUUUUUG [G57A C82U A105G G120U]	-4.95
GACCAAUCUGCCCUCAGAGCUCGAGAACAUCUUCGGAUGCAGAGGAGGCAGGCUUCAGUGGCGCGAUAGCGCCAACGUCCUCAACCUCCAAUGGAUCCCACCACAUGAUGAUGCCUGAAGAGCCUUGGUUUUUUG [G57A C94G]	-2.36
GACCAAUCUGCCCUCAGAGCUCGAGAACAUCUUCGGAUGCAGAGGAGGCAGGCUUCAGUGGCGCGAUAGCGCCAACGUCCUCAACCUCCAAUGCAUCCCACCACAUGAUGAUGUCUGAAGAGCCUUGGUUUUUUG [G57A C114U]	-3.27
GACCAAUCUGCCCUCAGAGCUCGAGAACAUCUUCGGAUGCAGAGGAGGCAGGCUUCAGUGGCGCGAUAGCGCCAACGUCCUCAACCUCCAAUGCAUCCCACCACAUGAUGAUGCCUGAAGAGUCUUGGUUUUUUG [G57A C123U]	-0.636
GACCAAUCUGCCCUCAGAGCUCGAGAACAUCUUCGGAUGCAGAGGAGGCAGGCUUCAGUGACGCGAUAGCGCCAACGUCCUCAACCUCCGAUGCAUCCCACCACAUGAUGAUGCCUGAAGAGCAUUGGUUUUUUG [G57A G61A A90G C124A]	0.849
GACCAAUCUGCCCUCAGAGCUCGAGAACAUCUUCGGAUGCAGAGGAGGCAGGCUUCAGUGGCUCGAUAGCGCCAACGUCCUCAACCUCCAAUGCAUCCCACCACAUGAUGAUGCCUGAAGAGCCUUGGUUUUUUG [G57A G63U]	-2.43
GACCAAUCUGCCCUCAGAGCUCGAGAACAUCUUCGGAUGCAGAGGAGGCAGGCUUCAGUGGCUCGAUAGCGCCAUCGUCCUCAACCUCCAAUGCAUCCCACCACAUGAUGAUGCCUGAAGAGCCUUGGUUUUAUG [G57A G63U A75U U133A]	-1.97
GACCAAUCUGCCCUCAGAGCUCGAGAACAUCUUCGGAUGCAGAGGAGGCAGGCUUCAGUGGCGCGAUAACGCCAAGGUCCUCAACCUCCAAUGCAUCCCACCACAUGAUGAUGCCUGAAGAGCCUUGGUUUUUUG [G57A G69A C76G]	-3.53
GACCAAUCUGCCCUCAGAGCUCGAGAACAUCUUCGGAUGCAGAGGAGGCAGGCUUCAGUGGCGCGAUACCGCCAACGUCCUCAACCUCCAAUGCAUCCCACCACAUGAUGAUGCCUGAAGAGCCUUGGUUUUUUG [G57A G69C]	-1.82
GACCAAUCUGCCCUCAGAGCUCGAGAACAUCUUCGGAUGCAGAGGAGGCAGGCUUCAGUGGCGCGAUAGCGCCAACGCCCUCAACCCCCAAUGCAUCCCACCAUAUGAUGAUACCUGAAGAGCCUUGGUUUUUUG [G57A U78C U87C C104U G113A]	-1.61
GACCAAUCUGCCCUCAGAGCUCGAGAACAUCUUCGGAUGCAGAGGAGGCAGGCUUCAGUGGCGCGAUAGCGCCAACGUCCACAACCUCCAAUGCAUCCCACCAUAUGAUGAUGCCUGAAGAGCCUUGGUUUUUUG [G57A U81A C104U]	-1.98
GACCAAUCUGCCCUCAGAGCUCGAGAACAUCUUCGGAUGCAGAGGAGGCAGGCUUCAGUGGCGCGAUAGCGCCAACGUCCUCAACCUCCAAUGCAGCCCACCACUUGAUGAUGCCUGAAGAGGCUUAGUUUUUUG [G57A U96G A105U C123G G127A]	-5.35
GACCAAUCUGCCCUCAGAGCUCGAGAACAUCUUCGGAUGCAGAGGAGGCAGGCUUCCGUGGCGCGAUAGCGCCAACGUCCUCAACCUCCAAUGCAUCCCACCACAUGAUGAUGCCUGAAGAGCCUUGGUUUUUUG [G57C]	-0.176
GACCAAUCUGCCCUCAGAGCUCGAGAACAUCUUCGGAUGCAGAGGAGGCAGGCUUCCGUGGCGCGAUAGCGCCAACGUCCUCAACCUCCGAUGCAUCCCACCACAUGAUGAUUCAUGAAGAGCCUUGGUUUUUUG [G57C A90G G113U C115A]	-5.11
GACCAAUCUGCCCUCAGAGCUCGAGAACAUCUUCGGAUGCAGAGGAGGCAGGCUUCCGUGGGGCGAUAGCGCCAACGUCCUCAACCUCCAAUGCAUCCCACCAAAUGAUGAUGCCUGAAGAGCCUUGGUUUUUUG [G57C C62G C104A]	-5.81
GACCAAUCUGCCCUCAGAGCUCGAGAACAUCUUCGGAUGCAGAGGAGGCAGGCUUCCGUGGCGCGAUAGCGCAAACGUCCUCAACCUCCAAUGCAUCCCACCACAUGAUGAUGCCUCAAGAGCCUUGGUUUUUUG [G57C C73A G117C]	-4.45
GACCAAUCUGCCCUCAGAGCUCGAGAACAUCUUCGGAUGCAGAGGAGGCAGGCUUCCGUGGCGCGAUAGCGCCAACGUUCUCAACCUCCAAUGCAUCCCACCACAUGAUAAUGCCUGAAGAGCCUUGGUUUUUUG [G57C C79U G110A]	-3.76
GACCAAUCUGCCCUCAGAGCUCGAGAACAUCUUCGGAUGCAGAGGAGGCAGGCUUCCGUGGCGCGAUAGCGCCAACGUCCUGAACCUCCAAUGCGUCCCACCACAUGAUGUUGCCUGAAGAGUCUUGGUUUUUUG [G57C C82G A95G A111U C123U]	-5.52
GACCAAUCUGCCCUCAGAGCUCGAGAACAUCUUCGGAUGCAGAGGAGGCAGGCUUCCGUGGCGCGAUAGCGCCAACGUCCUGAACCUCCAAUGCAUUCCACCACAUGAUGAUGCCUGAAGAGCCUUGGUUUUUUG [G57C C82G C97U]	-1.07
GACCAAUCUGCCCUCAGAGCUCGAGAACAUCUUCGGAUGCAGAGGAGGCAGGCUUCCGUGGCGCGAUAGCGCCAACGUCCUCAAGCUCCAAUGCAUCCCACCACAUGAUGAUGUCUGACGAGCCUUGGUUUUUUG [G57C C85G C114U A119C]	-6.42

Variant	polymerase ribozyme fitness (log ratio)
GACCAAUCUGCCCUCAGAGCUCGAGAACAUCUUCGGAUGCAGAGGAGGCAGGCUUCCGUGGCGCGAUAGCGCCAACGUCCUCAACCUCAAAUGCAUCCCACCACAUGAUGAUGCCUUGAGAGCCUUGGUCUUUUU [G57C C89A G117U A118G U130C G135U]	-2.49
GACCAAUCUGCCCUCAGAGCUCGAGAACAUCUUCGGAUGCAGAGGAGGCAGGCUUCCGUGGCGCGAUACCGCCAACGUCCUCAACCUCCAAUGCAUCCCACCACAUGAUGAUGCCUGAAGAGCCUUGGUUAUUUG [G57C G69C U131A]	-0.151
GACCAAUCUGCCCUCAGAGCUCGAGAACAUCUUCGGAUGCAGAGGAGGCAGGCUUCCGAGGCGCGAUAGCGCCAACGUCCUCAACCUCCAAUGCAUCCCACCACAUGAUGAUGCCUGAAGAGCCUUGGUUUUUUG [G57C U59A]	-0.128
GACCAAUCUGCCCUCAGAGCUCGAGAACAUCUUCGGAUGCAGAGGAGGCAGGCUUCUGUGGCGCGAUAGCGCCAACGUCCUCAACCUCCAAUGCAUCCCACCACAUGAUGAUGCCUGAAGAGCCUUGGUUUUUUG [G57U]	-0.128
GACCAAUCUGCCCUCAGAGCUCGAGAACAUCUUCGGAUGCAGAGGAGGCAGGCUUCUGUGGCGCGAUAGCGCCAGCGUCCUCCACCUCCAAUGCAUCCCACCACAUGAUGAUGCCUAAAGAGCCUUGGUUUUUUG [G57U A75G A83C G117A]	-2
GACCAAUCUGCCCUCAGAGCUCGAGAACAUCUUCGGAUGCAGAGGAGGCAGGCUUCUGUGGCGCGAUAGCGCCAACGUCCUCAACCUCCAAUGCAUCCCACCACGUGAUGAUACCUGAAGAGCCUUGGUUUUUUG [G57U A105G G113A]	-4.1
GACCAAUCUGCCCUCAGAGCUCGAGAACAUCUUCGGAUGCAGAGGAGGCAGGCUUCUGUGGCGCGAUAGCGCCAACGUCCUCAACCUCCAAUGCAUCCCACCACAUGAUGAUGCCUGAGGAGCCUUGGUUUUUUG [G57U A119G]	1.22
GACCAAUCUGCCCUCAGAGCUCGAGAACAUCUUCGGAUGCAGAGGAGGCAGGCUUCUGUGGCGCGAUAGCGUCAACGUCCUCUACCUCCAAUGCAUCCCACCACAUGAUGUUGCCUGAAGAGCCUUGGUUUUUUG [G57U C72U A83U A111U]	-4.12
GACCAAUCUGCCCUCAGAGCUCGAGAACAUCUUCGGAUGCAGAGGAGGCAGGCUUCUGUGGCGCGAUAGCGCCAACGUACUCAACCUCCAAUCCAUCCCACCACAUGAUGAGGCCUGAAGAGCCUUGGUUUUUUG [G57U C79A G93C U112G]	-2.9
GACCAAUCUGCCCUCAGAGCUCGAGAACAUCUUCGGAUGCAGAGGAGGCAGGCUUCUGUGGCGCGAUAGCGCCAACGUCCUGAACCUCCAAUGCGUCCCACCACAUGAUGUUGCCUGAAGAGUCUUGGUUUUUUG [G57U C82G A95G A111U C123U]	-5.66
GACCAAUCUGCCCUCAGAGCUCGAGAACAUCUUCGGAUGCAGAGGAGGCAGGCUUCUGUGGCGCGAUAGCGCCAACGUCCUGAACCUCCAAUGCAUCCCACCACAUGAUUAUGCCUGAAGAGCCUUGGUUUUUUG [G57U C82G G110U]	-2.25
GACCAAUCUGCCCUCAGAGCUCGAGAACAUCUUCGGAUGCAGAGGAGGCAGGCUUCUGUGGCGCGAUAGCGCCAACGUCCUCAACCUUCAAUGCAUCCCACCACAUGGUGAUGCCUGAAGAGCCUUGGUUUUUUG [G57U C88U A108G]	-3.61
GACCAAUCUGCCCUCAGAGCUCGAGAACAUCUUCGGAUGCAGAGGAGGCAGGCUUCUGUGGCGCGAUAGCGCCAACGUCCUCAACCUCCAAUGGAUCCCACCACAUGAUGAUGCCUGAAGAGCCUUGGUUUUUUG [G57U C94G]	-1.04
GACCAAUCUGCCCUCAGAGCUCGAGAACAUCUUCGGAUGCAGAGGAGGCAGGCUUCUGUAGCGCGAUAGCGCCAACGUCCUCAACCUCCAAUGCAUCCCACCACAUGAUGAUGACUGAAGAGCCUUGGAUUUUUG [G57U G60A C114A U129A]	-3.12
GACCAAUCUGCCCUCAGAGCUCGAGAACAUCUUCGGAUGCAGAGGAGGCAGGCUUCUGUCGCGCGAUAGCGCCAACGUCCUCAACCUCCAAUGCAUCCCACCACAUGAUGAUGCCUGAAGAGCCUUGGUUUUUUG [G57U G60C]	-3.3
GACCAAUCUGCCCUCAGAGCUCGAGAACAUCUUCGGAUGCAGAGGAGGCAGGCUUCUGUGGCCCGAUAGCGCCAACGUCCUCAACCUCCAAUGCAUCCCACCACAUGAUGAUGCCUGAAGAGCCUUGGUUUUUUG [G57U G63C]	-1.73
GACCAAUCUGCCCUCAGAGCUCGAGAACAUCUUCGGAUGCAGAGGAGGCAGGCUUCUGUGGCGCGAUAGCGCCAACGUCCUCAACCUCCAAUACAUCCCACCACAUGAUGAUGCCUGAAGAGCCUUGGUUUUUUG [G57U G93A]	0.0639
GACCAAUCUGCCCUCAGAGCUCGAGAACAUCUUCGGAUGCAGAGGAGGCAGGCUUCUGUGGCGCGAUAGCGCCAACGUCCUCAACCUCCAAUGCAUCCCACCACAUGAUAAUGCCUGAAGAGCCUUAGUUUUUUG [G57U G110A G127A]	-2.29
GACCAAUCUGCCCUCAGAGCUCGAGAACAUCUUCGGAUGCAGAGGAGGCAGGCUUCUGUGGCGCGAUAGCGCCAACGACUUCAACCUCCAAUGCAUCCCACCACAUGAUGAUGCCUGAAGAGCCUUGGUUUUUUG [G57U U78A C80U]	-0.707
GACCAAUCUGCCCUCAGAGCUCGAGAACAUCUUCGGAUGCAGAGGAGGCAGGCUUCUGUGGCGCGAUAGCGCCAACGACCUCAACCUCCAAUGCAUCCCACCACAUGAUGAUGCCUAAAGAGCCUUGGUUUUUUU [G57U U78A G117A G135U]	-2.21
GACCAAUCUGCCCUCAGAGCUCGAGAACAUCUUCGGAUGCAGAGGAGGCAGGCUUCUGUGGCGCGAUAGCGCCAACGUCCUCAACCUCCAAUGCAUCCCACCACAUGAUGAUGCCAGAAGAGCCUUGGUUUUUUG [G57U U116A]	-3.39
